Assay results as given in paper PMC2978023 (Journal of immunology (Baltimore, Md. : 1950), 2008).
Ends that are not written are not given here.

Tests used:
Assay in all cases: ELISA
[1] = target: recombinant purified β2 integrin subunit (UniProt P05107 23-769)
[2] = target: recombinant purified αM integrin subunit (UniProt P11215 17-1152)
[3] = target: recombinant purified integrin αMβ2 (UniProt P11215 17-1152; P05107 23-769)

GWTVFQKRLDGSV (also: biotin label, position not given here) [peptide P1, Fgγ(190)GWTVFQKRLDGSV(202)]
Kd [1]: > 100000 nM

KIIPFNRLTIG (also: biotin label, position not given here) [peptide P2-C, Fgγ(385)KIIPFNRLTIG(395)]
Kd [2]: 100 nM | Kd [1]: 50 nM | Kd [3]: 12 nM
